Measurements from the supplement of paper PMC11316812.
± gives the standard deviation of the averaged measurements.

Tests used:
[1] = test system: MCF7; test: percentage of EdU-negative (G0-arrested) nuclei per well, 72 h; higher = more G0 arrest; conditions: reference: sequence is the full UniProt precursor, the tested protein was the secreted form or ectodomain
[2] = test system: hTERT-HMEC; test: as above; conditions: reference: sequence is the full UniProt precursor, the tested protein was the secreted form or ectodomain
[3] = protein concentration 0.01175 µM
[4] = protein concentration 0.1175 µM
[5] = protein concentration 0.0225 µM
[6] = protein concentration 0.00925 µM
[7] = protein concentration 0.0925 µM
[8] = protein concentration 0.03125 µM
[9] = protein concentration 0.3125 µM
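Further: secreted proteins added to cultured cells, EdU pulse at the end, nuclei found by Hoechst imaging, EdU status from nuclear versus surrounding ring intensity ratio, PBS as neutral control.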

Sequence: MEKILFYLFLIGIAVKAQICPKRCVCQILSPNLATLCAKKGLLFVPPNIDRRTVELRLADNFVTNIKRKDFANMTSLVDLTLSRNTISFITPHAFADLRNLRALHLNSNRLTKITNDMFSGLSNLHHLILNNNQLTLISSTAFDDVFALEELDLSYNNLETIPWDAVEKMVSLHTLSLDHNMIDNIPKGTFSHLHKMTRLDVTSNKLQKLPPDPLFQRAQVLATSGIISPSTFALSFGGNPLHCNCELLWLRRLSREDDLETCASPPLLTGRYFWSIPEEEFLCEPPLITRHTHEMRVLEGQRATLRCKARGDPEPAIHWISPEGKLISNATRSLVYDNGTLDILITTVKDTGAFTCIASNPAGEATQIVDLHIIKLPHLLNSTNHIHEPDPGSSDISTSTKSGSNTSSSNGDTKLSQDKIVVAEATSSTALLKFNFQRNIPGIRMFQIQYNGTYDDTLVYRMIPPTSKTFLVNNLAAGTMYDLCVLAIYDDGITSLTATRVVGCIQFTTEQDYVRCHFMQSQFLGGTMIIIIGGIIVASVLVFIIILMIRYKVCNNNGQHKVTKVSNVYSQTNGAQIQGCSVTLPQSVSKQAVGHEENAQCCKATSDNVIQSSETCSSQDSSTTTSALPPSWTSSTSVSQKQKRKTGTKPSTEPQNEAVTNVESQNTNRNNSTALQLASRPPDSVTEGPTSKRAHIKPNALLTNVDQIVQETQRLELI [G3V364]
- percentage of EdU-negative [1, 3]: 25.9 ± 2.7%
- percentage of EdU-negative [1, 4]: 27.1 ± 1.2%
- percentage of EdU-negative [2, 3]: 4.44 ± 0.44%
- percentage of EdU-negative [2, 4]: 6.29 ± 1.1%

Sequence: MIPLLLAALLCVPAGALTCYGDSGQPVDWFVVYKLPALRGSGEAAQRGLQYKYLDESSGGWRDGRALINSPEGAVGRSLQPLYRSNTSQLAFLLYNDQPPQPSKAQDSSMRGHTKGVLLLDHDGGFWLVHSVPNFPPPASSAAYSWPHSACTYGQTLLCVSFPFAQFSKMGKQLTYTYPWVYNYQLEGIFAQEFPDLENVVKGHHVSQEPWNSSITLTSQAGAVFQSFAKFSKFGDDLYSGWLAAALGTNLQVQFWHKTVGILPSNCSDIWQVLNVNQIAFPGPAGPSFNSTEDHSKWCVSPKGPWTCVGDMNRNQGEEQRGGGTLCAQLPALWKAFQPLVKNYQPCNGMARKPSRAYKI
- percentage of EdU-negative [1, 5]: 24.5 ± 0.64%
- percentage of EdU-negative ([1]; protein concentration 0.225 µM): 26.5 ± 3%
- percentage of EdU-negative [2, 5]: 5.36 ± 0.56%
- percentage of EdU-negative ([2]; protein concentration 0.225 µM): 6.55 ± 0.55%

Sequence: MLPAPAAPRWPPLLLLLLLLLPLARGAPARPAAGGQASELVVPTRLPGSAGELALHLSAFGKGFVLRLAPDDSFLAPEFKIERLGGSGRATGGERGLRGCFFSGTVNGEPESLAAVSLCRGLSGSFLLDGEEFTIQPQGAGGSLAQPHRLQRWGPAGARPLPRGPEWEVETGEGQRQERGDHQEDSEEESQEEEAEGASEPPPPLGATSRTKRFVSEARFVETLLVADASMAAFYGADLQNHILTLMSVAARIYKHPSIKNSINLMVVKVLIVEDEKWGPEVSDNGGLTLRNFCNWQRRFNQPSDRHPEHYDTAILLTRQNFCGQEGLCDTLGVADIGTICDPNKSCSVIEDEGLQAAHTLAHELGHVLSMPHDDSKPCTRLFGPMGKHHVMAPLFVHLNQTLPWSPCSAMYLTELLDGGHGDCLLDAPAAALPLPTGLPGRMALYQLDQQCRQIFGPDFRHCPNTSAQDVCAQLWCHTDGAEPLCHTKNGSLPWADGTPCGPGHLCSEGSCLPEEEVERPKPVADGGWAPWGPWGECSRTCGGGVQFSHRECKDPEPQNGGRYCLGRRAKYQSCHTEECPPDGKSFREQQCEKYNAYNYTDMDGNLLQWVPKYAGVSPRDRCKLFCRARGRSEFKVFEAKVIDGTLCGPETLAICVRGQCVKAGCDHVVDSPRKLDKCGVCGGKGNSCRKVSGSLTPTNYGYNDIVTIPAGATNIDVKQRSHPGVQNDGNYLALKTADGQYLLNGNLAISAIEQDILVKGTILKYSGSIATLERLQSFRPLPEPLTVQLLTVPGEVFPPKVKYTFFVPNDVDFSMQSSKERATTNIIQPLLHAQWVLGDWSECSSTCGAGWQRRTVECRDPSGQASATCNKALKPEDAKPCESQLCPL [Q9UP79]
- percentage of EdU-negative [1, 6]: 25.7 ± 2%
- percentage of EdU-negative [1, 7]: 26.53 ± 0.069%
- percentage of EdU-negative [2, 6]: 5.77 ± 1.1%
- percentage of EdU-negative [2, 7]: 6.06 ± 0.51%

Sequence: MSISLSSLILLPIWINMAQIQQGGPDEKEKTTALKDLLSRIDLDELMKKDEPPLDFPDTLEGFEYAFNEKGQLRHIKTGEPFVFNYREDLHRWNQKRYEALGEIITKYVYELLEKDCNLKKVSIPVDATESEPKSFIFMSEDALTNPQKLMVLIHGSGVVRAGQWARRLIINEDLDSGTQIPFIKRAVAEGYGVIVLNPNENYIEVEKPKIHVQSSSDSSDEPAEKRERKDKVSKETKKRRDFYEKYRNPQREKEMMQLYIRENGSPEEHAIYVWDHFIAQAAAENVFFVAHSYGGLAFVELMIQREADVKNKVTAVALTDSVHNVWHQEAGKTIREWMRENCCNWVSSSEPLDTSVESMLPDCPRVSAGTDRHELTSWKSFPSIFKFFTEASEAKTSSLKPAVTRRSHRIKHEEL [Q8WUF8]
- percentage of EdU-negative [1, 5]: 24.1 ± 1.1%
- percentage of EdU-negative ([1]; protein concentration 0.225 µM): 24 ± 0.46%
- percentage of EdU-negative [2, 5]: 4.387 ± 0.021%
- percentage of EdU-negative ([2]; protein concentration 0.225 µM): 5.5592 ± 0.0051%

Sequence: MLSCRLQCALAALSIVLALGCVTGAPSDPRLRQFLQKSLAAAAGKQELAKYFLAELLSEPNQTENDALEPEDLSQAAEQDEMRLELQRSANSNPAMAPRERKAGCKNFFWKTFTSC
- percentage of EdU-negative [1, 8]: 25.9 ± 3.1%
- percentage of EdU-negative [1, 9]: 27 ± 1.9%
- percentage of EdU-negative [2, 8]: 5.72 ± 0.93%
- percentage of EdU-negative [2, 9]: 4.88 ± 0.35%
